Target: C-peptide-mCherry generated from RINS1 (human)
Assay: western blot of cell lysate (band size); lysates of MIN6 cells expressing RINS1 (lysis buffer 10 mM Tris/Cl pH 7.5, 150 mM NaCl, 0.5 mM EDTA, 0.5% NP-40), NuPAGE 4-12% Bis-Tris gel, anti-mCherry antibody

- stoichiometry N: 2
Substance: C-peptide-mCherry generated from RINS1 (domain or fragment)

Reference: article PMC5404835
